# Assay results from IntAct's records for PubMed 17036044.
# B1: Serine/arginine-rich splicing factor 7 (Homo sapiens), Q16629 (parent)
# chain: MSRYGRYGGETKVYVGNLGTGAGKGELERAFSYYGPLRTVWIARNPPGFAFVEFEDPRDAEDAVRGLDGKVICGSRVRVELSTGMPRRSRFDRPPARRPFDPNDRCYECGEKGHYAYDCHRYSRRRRSRSRSRSHSRSRGRRYSRSRSRSRGRRSRSASPRRSRSISLRRSRSASLRRSRSGSIKGSRYFQSPSRSRSRSRSISRPRSSRSKSRSPSPKRSRSPSGSPRRSASPERMD
# partner: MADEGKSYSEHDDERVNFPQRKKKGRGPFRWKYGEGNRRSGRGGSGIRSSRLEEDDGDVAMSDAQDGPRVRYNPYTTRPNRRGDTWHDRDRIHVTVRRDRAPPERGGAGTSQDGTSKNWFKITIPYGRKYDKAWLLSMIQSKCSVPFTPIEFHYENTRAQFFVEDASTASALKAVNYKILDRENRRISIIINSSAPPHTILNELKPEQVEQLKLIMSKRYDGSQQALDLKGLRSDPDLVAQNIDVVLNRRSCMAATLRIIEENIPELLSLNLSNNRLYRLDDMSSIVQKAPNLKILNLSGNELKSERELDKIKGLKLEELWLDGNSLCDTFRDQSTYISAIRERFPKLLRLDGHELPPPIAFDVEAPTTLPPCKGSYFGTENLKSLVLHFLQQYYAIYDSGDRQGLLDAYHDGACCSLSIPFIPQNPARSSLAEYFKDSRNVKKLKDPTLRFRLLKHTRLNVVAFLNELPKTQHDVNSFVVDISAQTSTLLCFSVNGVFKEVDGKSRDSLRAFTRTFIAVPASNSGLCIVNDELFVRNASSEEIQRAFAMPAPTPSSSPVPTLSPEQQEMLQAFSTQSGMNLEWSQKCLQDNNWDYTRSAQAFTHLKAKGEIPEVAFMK
# B2: Serine/arginine-rich splicing factor 3 (Homo sapiens), P84103 (parent)
# chain: MHRDSCPLDCKVYVGNLGNNGNKTELERAFGYYGPLRSVWVARNPPGFAFVEFEDPRDAADAVRELDGRTLCGCRVRVELSNGEKRSRNRGPPPSWGRRPRDDYRRRSPPPRRRSPRRRSFSRSRSRSLSRDRRRERSLSRERNHKPSRSFSRSRSRSRSNERK
# partner: B1 partner
# Variants of: B1
# Details: with nxf1_human NXF1, Q9UBU9
row,effect of a mutation on the interaction,Variant
1,disrupting interaction,R88E
2,disrupting interaction,R87E

# Variants of: B1
# Details: with nxf1_human NXF1, Q9UBU9
# Remark: another data set of the same source
row,effect of a mutation on the interaction,Variant
1,disrupting interaction,R97E
2,disrupting interaction,R98E

# Variants of: B2
# Details: with nxf1_human NXF1, Q9UBU9
row,effect of a mutation on the interaction,Variant
1,disrupting interaction,R90E

# Variants of: B2
# Details: with nxf1_human NXF1, Q9UBU9
# Remark: another data set of the same source
row,effect of a mutation on the interaction,Variant
1,disrupting interaction,R86E

# Variants of: B2
# Details: with nxf1_human NXF1, Q9UBU9
# Remark: another data set of the same source
row,effect of a mutation on the interaction,Variant
1,disrupting interaction,R88E
